In US20230303715A1:

How the values were obtained:
[1] = target: FcγRIIa (UniProt P12318); experiment: SPR; KD wt/KD mut vs 16588
[2] = target: FcγRIIb (UniProt P31994); experiment: SPR; KD wt/KD mut vs 16588
[3] = target: FcγRIIa (UniProt P12318); experiment: SPR Biacore, Ab on HER2 chip
[4] = target: FcγRIIb (UniProt P31994); experiment: SPR Biacore, Ab on HER2 chip
[5] = target: soluble human FcRn (human) (UniProt P55899); experiment: SPR ProteOn, Ab on protein L, pH 6.0
[6] = target: biotinylated human FcRn (produced by Protocol 1) (human) (UniProt P55899); experiment: SPR Biacore T200, FcRn on neutravidin, pH 6
[7] = target: FcγRIII (UniProt P08637); experiment: SPR ProteOn, Ab on HER2 chip, equilibrium fit
[8] = target: FcγRIIaH (UniProt P12318); experiment: SPR ProteOn, Ab on HER2 chip, equilibrium fit
[9] = target: FcγRIIaR (UniProt P12318); experiment: SPR ProteOn, Ab on HER2 chip, equilibrium fit
[10] = target: FcγRIIb (UniProt P31994); experiment: SPR ProteOn, Ab on HER2 chip, equilibrium fit
[11] = target: FcγRIII (UniProt P08637); experiment: SPR; KD wt/KD mut vs parental variant
[12] = target: FcγRIIaH (UniProt P12318); experiment: SPR; KD wt/KD mut vs parental variant
[13] = target: biotinylated human FcRn (produced by Protocol 1) (human) (UniProt P55899); experiment: SPR; KD wt/KD mut vs parental variant
[14] = target: FcγRI (UniProt P12314); experiment: SPR ProteOn, Ab on HER2 chip, equilibrium fit
[15] = target: FcγRIIa (UniProt P12318); experiment: SPR Biacore, Ab on HER2 chip; KD called ambiguous
[16] = target: FcγRIIb (UniProt P31994); experiment: SPR Biacore, Ab on HER2 chip; KD called ambiguous
[17] = target: FcγRIIaR (UniProt P12318); experiment: SPR; KD wt/KD mut vs parental variant
[18] = target: FcγRIIb (UniProt P31994); experiment: SPR; KD wt/KD mut vs parental variant

Chain of FcγRIIaR (P12318 34-217 H167R limits assumed): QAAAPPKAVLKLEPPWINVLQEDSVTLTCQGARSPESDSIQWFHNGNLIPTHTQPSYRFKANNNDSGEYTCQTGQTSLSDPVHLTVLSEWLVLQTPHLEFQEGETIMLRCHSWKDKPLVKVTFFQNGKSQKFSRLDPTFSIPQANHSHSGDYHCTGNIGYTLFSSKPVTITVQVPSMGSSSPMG
Chain of FcγRIII (P08637 17-208 limits assumed): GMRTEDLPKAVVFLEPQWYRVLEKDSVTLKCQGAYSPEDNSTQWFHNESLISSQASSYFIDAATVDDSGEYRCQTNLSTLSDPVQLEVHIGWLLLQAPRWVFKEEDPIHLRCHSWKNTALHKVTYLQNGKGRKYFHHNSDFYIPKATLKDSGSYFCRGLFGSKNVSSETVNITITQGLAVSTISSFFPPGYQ
Chain of FcγRIIb (P31994 43-217 limits assumed): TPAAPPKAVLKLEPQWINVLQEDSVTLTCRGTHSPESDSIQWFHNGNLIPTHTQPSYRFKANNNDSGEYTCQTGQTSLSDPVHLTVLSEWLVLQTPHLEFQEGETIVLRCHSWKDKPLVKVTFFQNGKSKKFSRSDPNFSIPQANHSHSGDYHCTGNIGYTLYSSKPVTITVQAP
Chain of FcγRIIaH (P12318 34-217 limits assumed): as the sequence (P12318 34-217 H167R limits assumed) above, with R134H counted along it
Chain of FcγRI (P12314 16-292 limits assumed): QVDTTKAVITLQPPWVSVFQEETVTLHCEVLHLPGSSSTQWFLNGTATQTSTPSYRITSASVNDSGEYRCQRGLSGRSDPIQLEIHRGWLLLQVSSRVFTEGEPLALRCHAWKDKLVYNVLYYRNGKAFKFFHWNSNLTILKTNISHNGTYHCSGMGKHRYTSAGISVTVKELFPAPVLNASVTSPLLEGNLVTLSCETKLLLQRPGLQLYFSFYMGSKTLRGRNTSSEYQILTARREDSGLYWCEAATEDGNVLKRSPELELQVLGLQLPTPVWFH

Relative FcγRIIa Binding [1]	Relative FcγRIIb Binding [2]	Kd [3] [nM]	Kd [4] [nM]	Substance	also measured
1.22	1.24	899	3050	trastuzumab Scaffold 1 variant 19310 (T250V) (antibody)	Kd [5]: 821 nM
0.89	0.94	1240	4030	trastuzumab Scaffold 1 variant 19313 (V308I) (antibody)	
0.3	0.22	3660	17600	trastuzumab Scaffold 1 variant 19323 (R292C_V302C) (antibody)	
0.97	1.18	1140	3220	trastuzumab Scaffold 1 variant 19327 (L242C_I336C) (antibody)	
			14000	trastuzumab Scaffold 1 variant 19324 (D249C_P257C) (antibody)	
				trastuzumab full-size antibody with S239D and I332E (Scaffold 7), variant v31517	Kd [6]: 337 nM; Kd [7]: 32 nM; Kd [8]: 775 nM; Kd [9]: 775 nM; Kd [10]: 1250 nM
			3800	trastuzumab full-size antibody with homodimeric IgG1 Fc (Scaffold 1), variant 16588 (WT)	Kd [5]: 641 nM
0.71	0.99	1540	3820	trastuzumab Scaffold 1 variant 19320 (L242C_K334C) (antibody)	Kd [5]: 645 nM
0.94	1.02	1170	3720	trastuzumab Scaffold 1 variant 19312 (V279I) (antibody)	
0.98	1.03	1130	3670	trastuzumab Scaffold 1 variant 19321 (A287C_L306C) (antibody)	Kd [5]: 693 nM
				trastuzumab Scaffold 7 (S239D/I332E) variant v31518 (A287F_M428F) (antibody)	Fold [11]: 1; Fold [12]: 1.2; Fold [13]: 1.2; Kd [6]: 275 nM; Kd [14]: 0.0136 nM; Kd [7]: 30.9 nM; Kd [8]: 671 nM; Kd [9]: 691 nM; Kd [10]: 1150 nM
				trastuzumab Scaffold 6 (N297A) variant v31516 (M428F_T250V) (antibody)	Kd [6]: 360 nM; Kd [14]: 20 nM
1.14	1.35			trastuzumab Scaffold 1 variant 19326 (V263C_V302C) (antibody)	Kd [5]: 604 nM; Kd [15]: 963 nM; Kd [16]: 2820 nM
0.55	0.66	2020	5760	trastuzumab Scaffold 1 variant 19318 (L314M) (antibody)	
1.17	1.29	941	2950	trastuzumab Scaffold 1 variant 19319 (K334R) (antibody)	
				trastuzumab Scaffold 7 (S239D/I332E) variant v31519 (A287F_T250V) (antibody)	Kd [6]: 470 nM; Kd [14]: 0.0108 nM; Kd [7]: 29 nM; Kd [8]: 655 nM; Kd [9]: 685 nM
0.96	1.03	1150	3680	trastuzumab Scaffold 1 variant 19317 (L309Q) (antibody)	Kd [5]: 1000 nM
			5070	trastuzumab Scaffold 1 variant 19309 (L242I) (antibody)	
1.06	1.08	1030	3510	trastuzumab Scaffold 1 variant 19308 (M428F) (antibody)	Kd [5]: 464 nM

Relative FcγRIIa Binding [1]	Relative FcγRIIb Binding [2]	Kd [3] [nM]	Kd [4] [nM]	Substance	also measured
1.48	1.71	745	2220	trastuzumab Scaffold 1 variant 19311 (F275I) (antibody)	
1.6	1.85	689	2050	trastuzumab Scaffold 1 variant 19328 (T289C_S304C) (antibody)	
0.02	0.23	63700	16900	trastuzumab Scaffold 1 variant 19331 (V240C_I332C) (antibody)	
0.76	0.7	1450	5460	trastuzumab Scaffold 1 variant 19307 (A378W) (antibody)	
1.45	1.02	758	3720	trastuzumab Scaffold 1 variant 19322 (V259C_L306C) (antibody)	
				trastuzumab variant v17078 (WT) (antibody)	Kd [6]: 292 nM; Kd [14]: 0.0894 nM; Kd [7]: 1480 nM; Kd [9]: 2070 nM; Kd [10]: 6850 nM
				trastuzumab Scaffold 6 (N297A) variant v31515 (A287F_T250V) (antibody)	Fold [13]: 0.8; Kd [6]: 553 nM; Kd [14]: 18.7 nM
				trastuzumab full-size antibody with N297A (Scaffold 6), variant v31513	Kd [6]: 467 nM; Kd [14]: 25.7 nM
			4910	trastuzumab Scaffold 1 variant 19325 (F275C_S304C) (antibody)	
0.38	0.39	2930	9830	trastuzumab Scaffold 1 variant 19329 (F243C_T260C) (antibody)	
			3460	trastuzumab Scaffold 1 variant 19304 (T289W) (antibody)	
				trastuzumab Scaffold 6 (N297A) variant v31514 (A287F_M428F) (antibody)	Fold [13]: 1.3; Kd [6]: 369 nM; Kd [14]: 16.2 nM
				trastuzumab Scaffold 7 (S239D/I332E) variant v31520 (M428F_T250V) (antibody)	Fold [12]: 1.2; Fold [17]: 1.2; Fold [18]: 1.1; Fold [13]: 1.2; Kd [6]: 286 nM; Kd [14]: 0.0145 nM; Kd [7]: 32.1 nM; Kd [8]: 644 nM; Kd [9]: 667 nM; Kd [10]: 1130 nM
		1040	3810	trastuzumab Scaffold 1 variant 19306 (A339Q) (antibody)	
1.72	1.81	640	2100	trastuzumab Scaffold 1 variant 19305 (A339W) (antibody)	
			3490	trastuzumab Scaffold 1 variant 19314 (Y319F) (antibody)	
0.94	1.01	1160	3750	trastuzumab Scaffold 1 variant 19316 (M252S) (antibody)	
		1070		trastuzumab Scaffold 1 variant 19303 (A287F) (antibody)	Kd [5]: 690 nM
